In PMC8041747 one finds stoichiometry N data, which are given here for 1 substance.

The target of this experiment is full-length 13-lined ground squirrel TRPV1 (13-lined ground squirrel (Ictidomys tridecemlineatus)). Briefly: cryo-EM structure; purified sqTRPV1 in 150 mM NaCl, 20 mM Tris pH 8.0, 1 mM βME, 0.01% GDN; apo, with 50 μM RTX or with 300 μM capsaicin.

By stoichiometry N is commonly meant a count of units in the complex or per binding partner.

“full-length 13-lined ground squirrel TRPV1 (natural protein)” yielded a stoichiometry N of 4 subunits.
